Results reported in paper PMC10345191 (NPJ Vaccines, 2023).

What was measured:
[1] = molecular target: T1, ConM SOSIP soluble gp140 Env trimer, unmodified (GMP) (HIV-1 (group M consensus)); experiment: BLI; conditions: both partners purified
T1 construct: copies: 3 + 3

[2] = molecular target: T2, EDC cross-linked ConM SOSIP soluble gp140 Env trimer (GMP) (HIV-1 (group M consensus)); experiment: BLI; conditions: both partners purified
T2 construct: copies: 3 + 3

B1: PGT122 Fab (Fab, V domains shown)
VH: QVHLQESGPGLVKPSETLSLTCNVSGTLVRDNYWSWIRQPLGKQPEWIGYVHDSGDTNYNPSLKSRVHLSLDKSKNLVSLRLTGVTAADSAIYYCATTKHGRRIYGVVAFKEWFTYFYMDVWGKGTSVTVSS
VL: APTFVSVAPGQTARITCGEESLGSRSVIWYQQRPGQAPSLIIYNNNDRPSGIPDRFSGSPGSTFGTTATLTITSVEAGDEADYYCHIWDSRRPTNWVFGEGTTLIVL
notes: source: Freestyle 293F cells, serum-free, purified (HiTrap KappaSelect, Mono S)
[1]
  Kd: < 1 pM
  koff: < 1e-07 s⁻¹
[2]
  Kd: < 1 pM
  koff: < 1e-07 s⁻¹
